Laboratory results taken from the supplement of paper PMC10567573.

B1: CRYL1 (parent)
chain: RNALENIRKEMKLLEQAGSLKGSL
B2: ZNF8 (parent)
chain: SLGRHKRTHTGEKPYTCSVCGKSF

Variants of: B1
Test: protein stability index of a GFP-peptide fusion (GPS, HEK-293T) (PSI 1-6); higher = more stable
Settings: c terminus: a fixed tail appended
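Also: lentivirally expressed fusions sorted by FACS into six bins by GFP to DsRed ratio, PSI derived from sequencing read proportions per bin multiplied by bin number.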

Protein stability index of substitutions, site by site:
S23: L 1.87; N 3.22; R 3.07; H 3.12; D 3.48; P 3.56; W 1.95; M 2.27; C 3.08; E 3.84; Y 2.73; T 2.8; A 2.9; G 3.4; I 2.45; V 2.2; F 2.64; Q 3.32; K 3.39
L24: S 3.95; P 3.77; D 3.99; I 3.2; Y 3.08; E 4.08; K 4.12; T 3.47; V 3.66; M 3.3; A 4.11; C 4.05; F 3.13; W 3.16; N 3.81
G22: V 2.15; H 2.94; N 3.04; S 3.14; Y 2.28; K 4.21; E 3.57; P 3.51; W 2; F 2.65; T 3.77; M 2.27; R 3.4; Q 3.36; L 2.02; I 1.4

Variants of: B2
Test: as above
Settings: c terminus: a fixed tail appended

Protein stability index: each site, then its substitutions
R4: P 2.34; S 3.19; H 2.85; V 2.5; Q 2.2; F 2.57; N 3.1; W 2.13; D 3; E 4.09; G 3.44; M 2.5; I 1.89; C 4.3; T 3.61
L2: C 4.3; H 4.09; K 3.66; M 2.67; R 2.04; A 2.71; T 3.12; G 2.95; Y 3.26; V 2.8; N 3.82; W 2.93; E 2.8; I 2.99; F 2.61; Q 2.25; D 3.19; P 2.77
K6: Y 3.23; W 1.94; L 2.04; F 1.82; V 2.35; S 2.61; N 2.48; E 3.29; H 1.97; G 2.33; C 3.29; D 4.27; T 2.97; I 2.43; A 2.68; M 2.38; P 2.18; R 2.77; Q 2.95
H5: V 2.54; W 2.46; E 3.15; R 3.03; F 1.82; D 3.17; L 2.26; P 2.78; C 3.77; I 3.34; M 2.6; A 2.5; N 2.52; G 3.18; Y 2.72; S 2.35; Q 2.84; T 3.06; K 3.01
R7: E 4.08; D 3.02; A 2.42; C 4.55; L 2.66; G 4.28; F 2.83; K 3; I 3.39; H 3.65
S1: R 2.82; Y 2.42; I 2.18; F 2.21; P 2.72; N 2.63; G 2.8; L 1.73; E 3.94; M 2.46; Q 3.71; A 2.86; T 2.94; H 3.08; W 1.5; C 3.6; K 3.05; D 3.4; V 2.58
G3: I 3.15; M 2.66; N 2.21; A 2.12; S 1.93; D 3.32; C 3.68; W 1.98; L 1.21; K 4.65; R 2.03; T 3.28; H 4.17; E 3.41; V 3.78; P 3.02; Y 2.79
